Source: US20250026849A1 (ARCELLX, published 2025)
Residue numbers refer to the chain shown, from its start. One block for each binder: values may come before it.

Biological target: T1, CD123 (Homo sapiens (Human), UniProt P26951 19-305, limits assumed)
T1 construct: The CD123 construct used in the ELISA is not described; also called CD123-Signal
T1 sequence: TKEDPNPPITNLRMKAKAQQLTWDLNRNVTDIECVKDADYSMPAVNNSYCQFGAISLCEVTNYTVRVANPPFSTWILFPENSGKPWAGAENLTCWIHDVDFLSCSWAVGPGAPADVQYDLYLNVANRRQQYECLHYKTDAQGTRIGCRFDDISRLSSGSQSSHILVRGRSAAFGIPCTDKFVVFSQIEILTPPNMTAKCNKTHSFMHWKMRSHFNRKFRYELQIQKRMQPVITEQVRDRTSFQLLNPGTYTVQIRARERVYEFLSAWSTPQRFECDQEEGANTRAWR
Assay: ELISA
Parameters: unit not given here

- ELISA_avg: 3.3
B1: D domain of SEQ ID NO: 548 (designed binder)
chain: MGSWGWFKHELAFIKADLEALGGSEAELAWFEEEIAEFEYELQFYKGKGNPEVEALRKEAAAIRDELQAYRHN

- ELISA_avg: 4.6
B2: D domain of SEQ ID NO: 522 (designed binder)
chain: MGSWYEFKFDLAEIKEQLEALGGSEAELALFEDDIAFFEYDLQNYKGKGNPEVEALRKEAAAIRDELQAYRHN

- ELISA_avg: 3.2
B3: D domain of SEQ ID NO: 523 (designed binder)
chain: B2 chain with E6D, F9Y, E16M, Q17D, L30Q, D33F, Y40E, D41E, N44D

- ELISA_avg: 8
B4: D domain of SEQ ID NO: 528 (designed binder)
chain: MGSWYDFKEDLADIKWMLEALGGSEAELAEFENVIAYFENDLQEYKGKGNPEVEALRKEAAAIRDELQAYRHN

- ELISA_avg: 7
B5: D domain of SEQ ID NO: 529 (designed binder)
chain: B4 chain with D6M, D10E, M17Y, E30W, N33D, V34D, Y37G, N40W, E44A

- ELISA_avg: 4
B6: D domain of SEQ ID NO: 530 (designed binder)
chain: MGSWYYFKDELADIKWDLEALGGSEAELAWFEMLIAQFELDLQWYKGKGNPEVEALRKEAAAIRDELQAYRHN

- ELISA_avg: 6.6
B7: D domain of SEQ ID NO: 542 (designed binder)
chain: B6 chain with Y6Q, D9T, D13W, W16D, M33W, L34V, Q37D, L40D, W44F

- ELISA_avg: 3.1
B8: D domain of SEQ ID NO: 531 (designed binder)
chain: B6 chain with Y5M, E10T, D17Y, W30F, M33D, L34W, Q37E, L40D, W44V

- ELISA_avg: 5.5
B9: D domain of SEQ ID NO: 506 (designed binder)
chain: MGSWHWFKEDLAIIKQDLEALGGSEAELATFEQWIAEFEWDLQEYKGKGNPEVEALRKEAAAIRDELQAYRHN

- ELISA_avg: 3.1
B10: D domain of SEQ ID NO: 507 (designed binder)
chain: B9 chain with H5N, Q16M, T30W, Q33H, W34N, E37G, W40F, D41E, E44G

- ELISA_avg: 3.8
B11: D domain of SEQ ID NO: 543 (designed binder)
chain: MGSWFEFKDYLADIKWDLEALGGSEAELAIFEHDIAYFEHNLQQYKGKGNPEVEALRKEAAAIRDELQAYRHN

- ELISA_avg: 5.8
B12: D domain of SEQ ID NO: 544 (designed binder)
chain: B11 chain with F5V, E6R, Y10F, W16M, I30D, H33Y, D34H, Y37E, Q44E

- ELISA_avg: 3.7
B13: D domain of SEQ ID NO: 540 (designed binder)
chain: MGSWDFFKEELAEIKHYLEALGGSEAELAFFEFWIADFEQDLQEYKGKGNPEVEALRKEAAAIRDELQAYRHN

- ELISA_avg: 6.1
B14: D domain of SEQ ID NO: 541 (designed binder)
chain: B13 chain with D5F, F6N, E13V, H16F, Y17Q, F33W, W34V, Q40D

- ELISA_avg: 6.9
B15: D domain of SEQ ID NO: 549 (designed binder)
chain: MGSWTWFKDNLAWIKEDLEALGGSEAELAWFELEIASFETALQDYKGKGNPEVEALRKEAAAIRDELQAYRHN

- ELISA_avg: 3.6
B16: D domain of SEQ ID NO: 550 (designed binder)
chain: B15 chain with W6Y, D9N, N10D, W13G, W30Q, L33F, S37E, T40W, A41L

- ELISA_avg: 5.9
B17: D domain of SEQ ID NO: 551 (designed binder)
chain: B1 chain with G5T, H9W, E10D, F13D, A16G, W30F, Y40W, E41R, F44D

- ELISA_avg: 10.1
B18: D domain of SEQ ID NO: 519 (designed binder)
chain: MGSWSFFKDDLAEIKYFLEALGGSEAELAMFEQTIAEFEYDLQDYKGKGNPEVEALRKEAAAIRDELQAYRHN

- ELISA_avg: 5
B19: D domain of SEQ ID NO: 520 (designed binder)
chain: B18 chain with S5M, F6E, D9E, D10E, F17I, M30W, T34S, E37D

- ELISA_avg: 3.5
B20: D domain of SEQ ID NO: 525 (designed binder)
chain: MGSWVLFKEELAYIKFELEALGGSEAELALFENVIAIFESNLQNYKGKGNPEVEALRKEAAAIRDELQAYRHN

- ELISA_avg: 4.3
B21: D domain of SEQ ID NO: 535 (designed binder)
chain: MGSWHWFKIVLADIKDGLEALGGSEAELAYFETTIADFEMDLQHYKGKGNPEVEALRKEAAAIRDELQAYRHN

- ELISA_avg: 3.5
B22: D domain of SEQ ID NO: 536 (designed binder)
chain: B21 chain with Q43H

- ELISA_avg: 5.4
B23: D domain of SEQ ID NO: 546 (designed binder)
chain: MGSWHVFKTELADIKFYLEALGGSEAELAMFELWIAEFEHELQDYKGKGNPEVEALRKEAAAIRDELQAYRHN

- ELISA_avg: 5.7
B24: D domain of SEQ ID NO: 537 (designed binder)
chain: MGSWFMFKEELADIKDWLEALGGSEAELASFESYIAWFEQDLQWYKGKGNPEVEALRKEAAAIRDELQAYRHN

- ELISA_avg: 3.1
B25: D domain of SEQ ID NO: 501 (designed binder)
chain: MGSWVFFKEDLATIKNDLEALGGSEAELAWFEMMIADFEADLQYYKGKGNPEVEALRKEAAAIRDELQAYRHN

- ELISA_avg: 4.7
B26: D domain of SEQ ID NO: 532 (designed binder)
chain: B25 chain with V5Y, F6Q, E9H, T13D, N16Y, D17G, M33D, M34D, A40L

- ELISA_avg: 3.7
B27: D domain of SEQ ID NO: 552 (designed binder)
chain: B25 chain with V5L, F6Y, D10Y, T13D, N16S, M33Y, M34E, A40E, D41Q

- ELISA_avg: 3.3
B28: D domain of SEQ ID NO: 503 (designed binder)
chain: B9 chain with I13N, Q16D, D17W, T30W, Q33D, W34N, E37D, W40G, E44V

- ELISA_avg: 13.7
B29: D domain of SEQ ID NO: 504 (designed binder)
chain: B9 chain with H5F, I13F, Q16E, T30W, Q33D, W34G, E37F, E44D

- ELISA_avg: 4.3
B30: D domain of SEQ ID NO: 502 (designed binder)
chain: B25 chain with V5E, F6E, T13E, N16V, D17W, M34G, A40D, D41G, Y44F

- ELISA_avg: 3.8
B31: D domain of SEQ ID NO: 533 (designed binder)
chain: B4 chain with D6V, E9D, W16Y, E30W, N33W, V34E, Y37N, N40F, E44Y

- ELISA_avg: 3.8
B32: D domain of SEQ ID NO: 505 (designed binder)
chain: B9 chain with H5Q, I13E, Q16H, T30W, Q33D, W34F, E37Q, W40F, E44W

- ELISA_avg: 3.2
B33: D domain of SEQ ID NO: 526 (designed binder)
chain: MGSWQDFKEDLAWIKYELEALGGSEAELAFFEYDIAIFENNLQHYKGKGNPEVEALRKEAAAIRDELQAYRHN

- ELISA_avg: 7.3
B34: D domain of SEQ ID NO: 547 (designed binder)
chain: MGSWIWFKDWLADIKDLLEALGGSEAELAEFEYDIALFEDQLQAYKGKGNPEVEALRKEAAAIRDELQAYRHN

- ELISA_avg: 4.8
B35: D domain of SEQ ID NO: 508 (designed binder)
chain: MGSWSWFKEDLAEIKMELEALGGSEAELAYFEWYIAEFEFQLQHYKGKGNPEVEALRKEAAAIRDELQAYRHN

- ELISA_avg: 4
B36: D domain of SEQ ID NO: 509 (designed binder)
chain: B35 chain with E9Q, E13D, M16I, E17Q, Y30W, Y34D, Q41E, H44D

- ELISA_avg: 6.8
B37: D domain of SEQ ID NO: 510 (designed binder)
chain: B35 chain with E13D, M16F, Y30W, W33L, Y34D, E37D, F40Q, Q41A, H44Q

- ELISA_avg: 6.9
B38: D domain of SEQ ID NO: 511 (designed binder)
chain: B35 chain with E13S, M16A, E17V, Y30F, W33S, Y34D, F40Q, Q41E, H44Y

- ELISA_avg: 11.1
B39: D domain of SEQ ID NO: 524 (designed binder)
chain: B35 chain with S5Y, W6I, M16E, W33E, Y34E, E37L, F40M, Q41E, H44W

- ELISA_avg: 4.4
B40: D domain of SEQ ID NO: 534 (designed binder)
chain: MGSWNFFKYDLADIMAYLEALGGSEAELAFFEDEIANFEHDLQKYKGKGNPEVEALRKEAAAIRDELQAYRHN

- ELISA_avg: 4.1
B41: D domain of SEQ ID NO: 545 (designed binder)
chain: MGSWWLFKEQLALIKYNLEALGGSEAELADFESWIAEFEHQLQEYKGKGNPEVEALRKEAAAIRDELQAYRHN

- ELISA_avg: 7.2
B42: D domain of SEQ ID NO: 538 (designed binder)
chain: MGSWFMFKQELAWIKEDLEALGGSEAELADFEWDIAEFEWDLQYYKGKGNPEVEALRKEAAAIRDELQAYRHN

- ELISA_avg: 4.7
B43: D domain of SEQ ID NO: 539 (designed binder)
chain: B13 chain with D5Q, F6I, E9G, E13Y, H16Q, W34D, D37E, Q40E, E44Y

- ELISA_avg: 3.3
B44: D domain of SEQ ID NO: 527 (designed binder)
chain: MGSWDHFKNDLAWIKKHLEALGGSEAELAEFEAVIAYFELYLQGYKGKGNPEVEALRKEAAAIRDELQAYRHN

- ELISA_avg: 5.1
B45: D domain of SEQ ID NO: 512 (designed binder)
chain: MGSWWEFKEDLAEIKWFLEALGGSEAELAWFEHDIAKFEFELQYYKGKGNPEVEALRKEAAAIRDELQAYRHN

- ELISA_avg: 3.3
B46: D domain of SEQ ID NO: 515 (designed binder)
chain: B45 chain with W5T, E6F, E9D, F17M, H33S, K37Y, F40D, Y44W

- ELISA_avg: 3.5
B47: D domain of SEQ ID NO: 521 (designed binder)
chain: B18 chain with S5A, F6W, D9E, Y16V, M30E, Q33V, T34S, E37D, D41E

- ELISA_avg: 3.5
B48: D domain of SEQ ID NO: 514 (designed binder)
chain: B45 chain with W5N, E9D, E13M, W16M, F17T, K37E, F40D, E41D, Y44W

- ELISA_avg: 5.7
B49: D domain of SEQ ID NO: 513 (designed binder)
chain: B45 chain with W5E, E6W, E9S, E13S, F17E, K37E, F40E, E41D, Y44W

- ELISA_avg: 5.2
B50: D domain of SEQ ID NO: 517 (designed binder)
chain: B18 chain with F6M, Y16A, F17S, M30W, Q33D, T34D, E37W, Y40D, D44H

- ELISA_avg: 3.6
B51: D domain of SEQ ID NO: 518 (designed binder)
chain: MGSWQYFKDDLAEIKMVLEALGGSEAELAWFEADIAMFEDDLQIYKGKGNPEVEALRKEAAAIRDELQAYRHN

- ELISA_avg: 4.7
B52: D domain of SEQ ID NO: 516 (designed binder)
chain: B51 chain with Q5S, Y6D, V17I, W30Y, A33N, M37W, I44E
